Measurements: patent US20160039896A1 (Stanford University, published 2016)

Legend:
[1] = biological target: T1, recombinant human VEGFR2 extracellular domain (human, UniProt P35968 20-764); assay: yeast surface display of individual clones, soluble VEGFR2
T1 construct: extracellular domain; Bought (Calbiochem); also called KDR; Flk-1

[2] = biological target: U87MG human glioblastoma cells; assay: flow cytometry titration on U87MG cells, anti-FLAG detection
[3] = biological target: VEGFR2 and αvβ3 integrin on HUVEC; assay: flow cytometry titration on HUVEC (VEGFR2 and αvβ3 integrin), anti-FLAG detection
[4] = biological target: VEGFR2 and αvβ3 integrin on SVR angiosarcoma cells (murine); assay: flow cytometry titration on SVR murine angiosarcoma cells (VEGFR2 and αvβ3 integrin), anti-FLAG detection
[5] = biological target: VEGFR2 and αvβ3 integrin on HUVEC; assay: cell-based or functional assay

T1 sequence (P35968 20-764): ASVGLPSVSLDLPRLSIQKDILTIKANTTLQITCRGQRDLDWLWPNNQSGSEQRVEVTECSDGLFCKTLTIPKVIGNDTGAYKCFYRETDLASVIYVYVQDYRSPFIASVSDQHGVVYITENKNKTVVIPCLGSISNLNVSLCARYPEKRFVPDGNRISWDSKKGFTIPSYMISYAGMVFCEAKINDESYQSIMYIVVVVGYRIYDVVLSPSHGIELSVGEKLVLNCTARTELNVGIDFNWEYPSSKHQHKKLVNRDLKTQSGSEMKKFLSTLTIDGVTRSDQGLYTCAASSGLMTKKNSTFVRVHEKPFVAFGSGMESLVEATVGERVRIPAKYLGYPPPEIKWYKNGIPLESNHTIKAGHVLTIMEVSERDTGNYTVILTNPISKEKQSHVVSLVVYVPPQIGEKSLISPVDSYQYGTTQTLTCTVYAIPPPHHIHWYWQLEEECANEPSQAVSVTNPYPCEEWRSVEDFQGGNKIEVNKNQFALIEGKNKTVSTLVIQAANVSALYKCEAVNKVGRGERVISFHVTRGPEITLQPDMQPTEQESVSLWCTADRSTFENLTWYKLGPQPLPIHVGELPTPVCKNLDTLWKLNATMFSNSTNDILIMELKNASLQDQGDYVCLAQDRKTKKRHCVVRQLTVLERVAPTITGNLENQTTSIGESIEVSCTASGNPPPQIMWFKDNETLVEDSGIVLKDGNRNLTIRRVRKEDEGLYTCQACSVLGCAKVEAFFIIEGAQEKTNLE

Binder	binding result [1]	Kd [2]	Kd [3]	Kd [4]	inhibition of VEGF-induced autophosphorylation of VEGFR-2 in HUVEC, in the presence of vitronectin [5]
scVEGFrgd-7B-K (ligand, built from the parts; F17A, E64A and I46A are kept because the RGD libraries were made from scVEGFmut) EVVKAMDVYQRSYCHPIETLVDILQEYPDEIEYIFKPSCVPLMRCGGCCNDAGLECVPTEESNITMQIMRIKPYQGQHIGEMSFLQHNKCECRPKKDGSTSGSGKSSEGKGEVVRFMDVYQRSYCHPIETLVDIFQEYPDEIEYAFKPSCVPLMRCGGCCNHEGLECVPTEESNITMQIMRPHDRGDAGVHIGEMSFLQHNKCECRPKED	binds				
scVEGFrgd-7B-C (ligand, built from the parts; F17A, E64A and I46A are kept because the RGD libraries were made from scVEGFmut) EVVKAMDVYQGSYCHPIETLVDILQEYPDEIEYIFKPSCVPLMRCGGCCNNAGLECVPTEESNITMQIMRIKPYQGQHIGEMSFLQHNKCECRPKKGGSTSGSGKSSEGKGEVVKFMDVYQRSYCHPIETLVDIFQEYPDEIEYAFKPSCVPLMRCGGCCNHEGLECVPTEESNITMRIMRPHDRGDAGVHIGEMSFLQHNKCECRPKRD	binds				
scVEGFrgd-7B-A (ligand, built from the parts; F17A, E64A and I46A are kept because the RGD libraries were made from scVEGFmut) EVVKAMDVYQRSYCHPIETLVDILQEYPDEIEYIFKPSCVPLMRCGGCCNDAGLECVPTEESNITMQVMRIKPYRGQHIGEMSFLQHNKCECRPKKDGSTSGSGKSSEGKGEVVKFMDVYQRSYCHPIETLVDIFQEYPDEIEYAFKPSCVPLMRCGGCCNNEGLECVPTEESNITMQIMRPHDRGDAGVHIGEMSFLQHNKCECRPRKD	binds				
scVEGFrgd-7H (ligand) EVVKAMDVYQRSYCHPIETLVDIFQEYPDEIEYIFKPSCVPLMRCGGCCNDAGLECVPTEESNITMQIMRIKPHQGQHIGEMSFLQHNKCECRPKKDGSTSGSGKSSEGKGEVVKFMDVYQRSYCHPIETLVDIFQEYPDEIEYAFKPSCVPLMRCGGCCNDEGLECVPTEESNITMQIMRPGGRGDSAYHIGEMSFLQHNKCECRPKKDTR		15.6 nM	12 nM	18 nM	
scVEGFrgd-7P (ligand) EVVKAMDVYQRSYCHPIETLVDIFQEYPDEIEYIFKPSCVPLMRCGGCCNDAGLECVPTEESNITMQIMRIKPHQGQHIGEMSFLQHNKCECRPKKDGSTSGSGKSSEGKGEVVKFMDVYQRSYCHPIETLVDIFQEYPDEIEYAFKPSCVPLMRCGGCCNDEGLECVPTEESNITMQIMRPASRGDSPPHIGEMSFLQHNKCECRPKKDTR		29 nM	45 nM	31 nM	
scVEGFrgd-7I (ligand) EVVKAMDVYQRSYCHPIETLVDIFQEYPDEIEYIFKPSCVPLMRCGGCCNDAGLECVPTEESNITMQIMRIKPHQGQHIGEMSFLQHNKCECRPKKDGSTSGSGKSSEGKGEVVKFMDVYQRSYCHPIETLVDIFQEYPDEIEYAFKPSCVPLMRCGGCCNDEGLECVPTEESNITMQIMRPSVRRGDSPASHIGEMSFLQHNKCECRPKKDTR		13.9 nM	6 nM	37 nM	80%
